Test results published in patent publication US20150232560A1 (Hoffmann-La Roche, published 2015).
“And” between values parts separate entries of the source, which are not always exact repeats. Equal values may be shown once.

Assays:
[1] = biological target: T1, IGF-1R(1340-1366)[1346-pTyr]amid (phosphotyrosine at 1346; C-terminal amide); experiment: SPR (BIAcore 3000), ss-FABs hybridized on biotinylated T40-Bi linker on SA chip, peptide in solution; T40-Bi linker (linker 10)
T1 construct: Used as the analyte free in solution; also called pIGF-1R peptide (free in solution); phosphorylated IGF-1R peptide
T1 peptide: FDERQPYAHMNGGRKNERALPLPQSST

[2] = biological target: T1, IGF-1R(1340-1366)[1346-pTyr]amid; experiment: SPR (BIAcore 3000, SA sensor, 25 C): ss-FABs hybridized on the surface-captured biotinylated T40-Bi ss-DNA linker; peptide as analyte in solution
Text: (§1) FIG. 17 Schematic drawing of the BIAcore assay, presenting the complex s on the sensor surface. On Flow Cell 1 (=FC1) (not shown) amino-PEO-biotin was captured. On FC2, FC3 and FC4 bivalent binding agents with increasing linker length were immobilized. Analyte 1: IGF-1R-peptide containing the M-1.4.168 ss-FAB epitope (thin line)-the M-8.1.2 ss-FAB phospho-epitope is not present, because this peptide is not phosphorylated; analyte 2: pIGF-1R peptide containing the M-8.1.2 ss-FAB phospho-epitope (P) and the M-1.4.168 ss-FAB epitope (thin line). Analyte 3: pINR peptide, containing the cross reacting M-8.1.2 ss-FAB phospho-epitope, but not the epitope for M-1.4.168.
(§2) The dissociation was monitored at 50 μl/min for 5.3 min. The system was regenerated after each concentration step with a 12 sec pulse of 250 mM NaOH and was reloaded with ss-FAB ligand.

[3] = biological target: T2, IGF-1R(1340-1366)amid (C-terminal amide); experiment: as above
T2 construct: Used as the analyte free in solution; also called IGF-1R peptide (free in solution); non-phosphorylated IGF-1R peptide
T2 peptide: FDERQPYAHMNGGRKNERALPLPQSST
Text: as §1, §2

[4] = biological target: T1, IGF-1R(1340-1366)[1346-pTyr]amid; experiment: SPR (BIAcore 3000), ss-FABs hybridized on biotinylated T0 linker on SA chip, peptide in solution; T0 linker (no spacer; linker 16 as printed)
[5] = biological target: T1, IGF-1R(1340-1366)[1346-pTyr]amid; experiment: SPR (BIAcore 3000, SA sensor, 25 C): ss-FABs hybridized on the surface-captured biotinylated T0-Bi ss-DNA linker; peptide as analyte in solution
[6] = biological target: T2, IGF-1R(1340-1366)amid; experiment: as above
[7] = biological target: T3, INR(1355-1382)[1361-pTyr]amid (human, phosphotyrosine at 1361; C-terminal amide); experiment: SPR (BIAcore 3000, SA sensor, 25 C): single ss-FAB hybridized on the surface-captured biotinylated T40-Bi ss-DNA linker; peptide as analyte in solution
T3 construct: Used as the analyte free in solution; also called pINR peptide; phosphorylated insulin receptor peptide (free in solution)
T3 peptide: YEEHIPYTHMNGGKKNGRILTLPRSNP

B1: T40 dual binding agent: ss-FAB 8.1.2 and ss-FAB 1.4.168 on the biotinylated T40-Bi 77-mer ss-DNA-Linker (linker 10) (bispecific antibody, V domains shown)
VH 1: QCDVKLVESGGGLVKPGGSLKLSCAASGFTFSDYPMSWVRQTPEKRLEWVATITTGGTYTYYPDSIKGRFTISRDNAKNTLYLQMGSLQSEDAAMYYCTRVKTDLWWGLAYWGQGTLVTVSA
VL 1: QLVLTQSSSASFSLGASAKLTCTLSSQHSTYTIEWYQQQPLKPPKYVMELKKDGSHTTGDGIPDRFSGSSSGADRYLSISNIQPEDESIYICGVGDTIKEQFVYVFGGGTKVTVLG
VH 2: EVQLQQSGPALVKPGASVKMSCKASGFTFTSYVIHWVKQKPGQGLEWIGYLNPYNDNTKYNEKFKGKATLTSDRSSSTVYMEFSSLTSEDSAVYFCARRGIYAYDHYFDYWGQGTSLTVSS
VL 2: QIVLTQSPAIMSASPGEKVTLTCSASSSVNYMYWYQQKPGSSPRLLIYDTSNLASGVPVRFSGSGSVTSYSLTISRMEAEDAATYYCQQWSTYPLTFGAGTKLELK
modifications: ss-DNA on a hinge cysteine
notes: Assembled on the SA chip on the biotinylated linker T20-(Biotin-dT)-T20; also called T40-bi complex
- Kd [1]: 0.01 nM
- Kd [2]: 0.0125 nM
- Kd [3]: 0.973 nM and 1 nM
- t1/2 diss [3]: 4.3 min

B2: T0 dual binding agent: ss-FAB 8.1.2 and ss-FAB 1.4.168 on the biotinylated T0-Bi 37-mer ss-DNA-Linker (linker 17) (bispecific antibody, V domains shown)
VH 1: QCDVKLVESGGGLVKPGGSLKLSCAASGFTFSDYPMSWVRQTPEKRLEWVATITTGGTYTYYPDSIKGRFTISRDNAKNTLYLQMGSLQSEDAAMYYCTRVKTDLWWGLAYWGQGTLVTVSA
VL 1: QLVLTQSSSASFSLGASAKLTCTLSSQHSTYTIEWYQQQPLKPPKYVMELKKDGSHTTGDGIPDRFSGSSSGADRYLSISNIQPEDESIYICGVGDTIKEQFVYVFGGGTKVTVLG
VH 2: EVQLQQSGPALVKPGASVKMSCKASGFTFTSYVIHWVKQKPGQGLEWIGYLNPYNDNTKYNEKFKGKATLTSDRSSSTVYMEFSSLTSEDSAVYFCARRGIYAYDHYFDYWGQGTSLTVSS
VL 2: QIVLTQSPAIMSASPGEKVTLTCSASSSVNYMYWYQQKPGSSPRLLIYDTSNLASGVPVRFSGSGSVTSYSLTISRMEAEDAATYYCQQWSTYPLTFGAGTKLELK
modifications: ss-DNA on a hinge cysteine
notes: The protein parts are the same in both cases
- Kd [4]: 0.03 nM
- Kd [5]: 0.0344 nM
- Kd [6]: 1.2 nM and 1 nM
- t1/2 diss [6]: 5 min

B3: ss-FAB' 1.4.168 (Fab, V domains shown)
VH: DVKLVESGGGLVKPGGSLKLSCAASGFTFSDYPMSWVRQTPEKRLEWVATITTGGTYTYYPDSIKGRFTISRDNAKNTLYLQMGSLQSEDAAMYYCTRVKTDLWWGLAYWGQGTLVTVSA
VL: QLVLTQSSSASFSLGASAKLTCTLSSQHSTYTIEWYQQQPLKPPKYVMELKKDGSHTTGDGIPDRFSGSSSGADRYLSISNIQPEDESIYICGVGDTIKEQFVYVFGGGTKVTVLG
modifications: 17mer ss-DNA comprising SEQ ID NO: 05 with fluorescein, coupled via maleimide to a cysteine of the FAB' hinge region
notes: FAB' made from the murine monoclonal antibody M-1.4.168 by pepsin cleavage and cysteamine reduction; the constant parts are not; also called ss-FAB 1.004.168; fluorescein-ss-FAB' 1.4.168
- binding result [7]: no binding
